What was measured:
[1] = molecular target: T1, human EpCAM, full length, on cells (human, UniProt P16422 24-314); assay: flow cytometry on CHO-S cells transiently transfected with full length human EpCAM, PE anti-human IgG F(ab')2
T1 construct: also called hEpCAM; EpCAM on DiFi, HPAF-II, A549, OV-90-SC12 and MDA-MB-231_hCLDN6_hEpCAM cells
T1 sequence: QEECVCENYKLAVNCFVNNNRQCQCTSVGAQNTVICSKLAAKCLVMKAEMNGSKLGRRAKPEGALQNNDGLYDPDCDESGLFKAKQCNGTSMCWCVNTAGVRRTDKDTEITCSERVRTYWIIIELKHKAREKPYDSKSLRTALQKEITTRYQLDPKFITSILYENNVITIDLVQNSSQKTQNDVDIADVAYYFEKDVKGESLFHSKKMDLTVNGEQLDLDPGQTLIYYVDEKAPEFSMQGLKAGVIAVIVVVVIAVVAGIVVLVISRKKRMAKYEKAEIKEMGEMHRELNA

[2] = molecular target: T2, mouse EpCAM, full length, on transfected CHO-S cells (mouse, UniProt Q99JW5 24-315); assay: flow cytometry on CHO-S cells transiently transfected with full length mouse EpCAM, PE anti-human IgG F(ab')2
T2 sequence: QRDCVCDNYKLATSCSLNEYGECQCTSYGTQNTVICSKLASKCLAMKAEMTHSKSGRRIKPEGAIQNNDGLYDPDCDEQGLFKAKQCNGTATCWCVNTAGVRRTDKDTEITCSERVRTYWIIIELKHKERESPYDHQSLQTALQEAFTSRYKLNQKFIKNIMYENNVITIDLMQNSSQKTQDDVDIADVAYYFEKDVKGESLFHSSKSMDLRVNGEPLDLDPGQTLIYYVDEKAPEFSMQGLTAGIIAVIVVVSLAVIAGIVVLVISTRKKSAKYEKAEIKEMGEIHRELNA

[3] = molecular target: T3, His-tagged FcRn (SinoBiological, cat. no. CT009-H08H-B) (UniProt P55899 24-297; P61769 21-119); assay: SPR kinetics at pH 6.0; His-tagged FcRn captured, antibody 0-100 nM as analyte
T3 construct: also called neonatal Fc receptor

[4] = molecular target: T3, His-tagged FcRn (SinoBiological, cat. …); assay: SPR kinetics at pH 6.0; His-tagged FcRn captured, antibody 0-100 nM as analyte; mean
[5] = molecular target: FcγRIa (CD64 Protein, Human, Recombinant (His Tag), Biotinylated; SinoBiological 10256-H08S-B) (human, UniProt P12314 16-288); assay: SPR (Biacore 8K), His-tagged FcγR captured on anti-His chip, antibody as analyte, endpoint response against concentration
[6] = molecular target: T4, recombinant cynomolgus monkey EpCAM (R&D systems, cat no. 10451-EP) (cynomolgus monkey, UniProt Q1WER1 24-265 (rhesus entry)); assay: BLI (Octet HTX); recombinant cynomolgus monkey EpCAM on anti-Penta-HIS sensors, antibody 1.56-100 nM in solution
T4 construct: also called cynomolgus monkey EpCAM extracellular domain
T4 sequence: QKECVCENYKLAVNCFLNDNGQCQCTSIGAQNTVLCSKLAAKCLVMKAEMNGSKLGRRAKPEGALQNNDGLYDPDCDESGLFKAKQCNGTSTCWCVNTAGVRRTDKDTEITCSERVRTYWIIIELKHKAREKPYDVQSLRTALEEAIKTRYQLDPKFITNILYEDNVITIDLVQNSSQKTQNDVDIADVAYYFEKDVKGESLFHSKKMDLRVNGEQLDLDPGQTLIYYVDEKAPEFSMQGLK

[7] = molecular target: T1, human EpCAM, full length, on cells; assay: flow cytometry on DiFi cells, PE anti-human IgG F(ab')2
[8] = molecular target: T1, human EpCAM, full length, on cells; assay: flow cytometry on HPAF-II cells, PE anti-human IgG F(ab')2

T3 sequence (P55899 24-297 limits assumed, form in doubt, chain 1 of 2): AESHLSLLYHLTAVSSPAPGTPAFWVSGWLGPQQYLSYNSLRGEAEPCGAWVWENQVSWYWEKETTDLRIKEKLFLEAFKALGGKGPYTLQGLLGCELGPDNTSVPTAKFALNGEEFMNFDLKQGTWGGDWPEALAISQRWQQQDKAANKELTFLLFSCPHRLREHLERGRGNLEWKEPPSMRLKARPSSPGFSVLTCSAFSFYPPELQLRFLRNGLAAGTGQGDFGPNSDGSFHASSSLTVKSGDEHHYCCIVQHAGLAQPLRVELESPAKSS
T3 sequence (P61769 21-119 limits assumed, form in doubt, chain 2 of 2): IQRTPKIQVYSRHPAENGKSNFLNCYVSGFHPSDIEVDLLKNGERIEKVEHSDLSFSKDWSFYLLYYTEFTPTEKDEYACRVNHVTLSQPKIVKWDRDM
FcγRIa (CD64 Protein, Human, Recombinant (His Tag), Biotinylated; SinoBiological 10256-H08S-B), sequence (P12314 16-288 limits assumed, stated change not applied): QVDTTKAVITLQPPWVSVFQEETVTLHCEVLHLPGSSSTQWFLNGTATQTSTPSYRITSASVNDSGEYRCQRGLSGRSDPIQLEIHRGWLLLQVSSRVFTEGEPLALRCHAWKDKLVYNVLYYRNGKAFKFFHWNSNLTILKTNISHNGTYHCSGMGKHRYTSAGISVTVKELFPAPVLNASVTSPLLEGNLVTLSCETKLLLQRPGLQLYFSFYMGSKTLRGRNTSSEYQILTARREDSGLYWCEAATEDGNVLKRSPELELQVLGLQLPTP

B1: bsIgG1-b12-FEAL/EpCAM-323-A3-FEAR (bispecific antibody)
heavy 1: QVQLVQSGAEVKKPGASVKVSCQASGYRFSNFVIHWVRQAPGQRFEWMGWINPYNGNKEFSAKFQDRVTFTADTSANTAYMELRSLRSADTAVYYCARVGPYSWDDSPQDNYYMDVWGKGTTVIVSSASTKGPSVFPLAPSSKSTSGGTAALGCLVKDYFPEPVTVSWNSGALTSGVHTFPAVLQSSGLYSLSSVVTVPSSSLGTQTYICNVNHKPSNTKVDKRVEPKSCDKTHTCPPCPAPEFEGGPSVFLFPPKPKDTLMISRTPEVTCVVVAVSHEDPEVKFNWYVDGVEVHNAKTKPREEQYNSTYRVVSVLTVLHQDWLNGKEYKCKVSNKALPAPIEKTISKAKGQPREPQVYTLPPSREEMTKNQVSLTCLVKGFYPSDIAVEWESNGQPENNYKTTPPVLDSDGSFLLYSKLTVDKSRWQQGNVFSCSVMHEALHNHYTQKSLSLSPG
light 1: EIVLTQSPGTLSLSPGERATFSCRSSHSIRSRRVAWYQHKPGQAPRLVIHGVSNRASGISDRFSGSGSGTDFTLTITRVEPEDFALYYCQVYGASSYTFGQGTKLERKRTVAAPSVFIFPPSDEQLKSGTASVVCLLNNFYPREAKVQWKVDNALQSGNSQESVTEQDSKDSTYSLSSTLTLSKADYEKHKVYACEVTHQGLSSPVTKSFNRGEC
heavy 2: QIQLVQSGPELKKPGETVKISCKASGYTFTNYGMNWVRQASGEGLKWMGWINTYTGEPTYGEDFKGRFAFSLETSASTAYLQINNLKNEDTATYFCARFGNYVDYWGQGTTLTVSSASTKGPSVFPLAPSSKSTSGGTAALGCLVKDYFPEPVTVSWNSGALTSGVHTFPAVLQSSGLYSLSSVVTVPSSSLGTQTYICNVNHKPSNTKVDKRVEPKSCDKTHTCPPCPAPEFEGGPSVFLFPPKPKDTLMISRTPEVTCVVVAVSHEDPEVKFNWYVDGVEVHNAKTKPREEQYNSTYRVVSVLTVLHQDWLNGKEYKCKVSNKALPAPIEKTISKAKGQPREPQVYTLPPSREEMTKNQVSLTCLVKGFYPSDIAVEWESNGQPENNYKTTPPVLDSDGSFFLYSRLTVDKSRWQQGNVFSCSVMHEALHNHYTQKSLSLSPG
light 2: DIVMTQAAFSNPVTLGTSASISCRSSKNLLHSNGITYLYWYLQKPGQSPHLLIYQMSNLASGVPDRFSSSGSGTDFTLRISRVEAEDVGVYYCAQNLEIPRTFGGGTKLEIKRTVAAPSVFIFPPSDEQLKSGTASVVCLLNNFYPREAKVQWKVDNALQSGNSQESVTEQDSKDSTYSLSSTLTLSKADYEKHKVYACEVTHQGLSSPVTKSFNRGEC
EC50 (read off the curve) [1]: ~0.1 µg/mL
EC50 (read off the curve) [2]: ~0.05 µg/mL

B2: IgG1-b12 (wild-type Fc) (antibody)
heavy: not shown
light: EIVLTQSPGTLSLSPGERATFSCRSSHSIRSRRVAWYQHKPGQAPRLVIHGVSNRASGISDRFSGSGSGTDFTLTITRVEPEDFALYYCQVYGASSYTFGQGTKLERKRTVAAPSVFIFPPSDEQLKSGTASVVCLLNNFYPREAKVQWKVDNALQSGNSQESVTEQDSKDSTYSLSSTLTLSKADYEKHKVYACEVTHQGLSSPVTKSFNRGEC
koff [3]: 0.0322 s⁻¹
kon [3]: 1.1e+06 M⁻¹ s⁻¹
Kd [4]: 29 nM
EC50 (read off the curve) [5]: ~50 nM

B3: BisG2amm-EpCAM-323-A3-AALT/m4-1BB-3H3-AAKR (bispecific antibody, mouse IgG2a, kappa)
heavy 1: QIQLVQSGPELKKPGETVKISCKASGYTFTNYGMNWVRQASGEGLKWMGWINTYTGEPTYGEDFKGRFAFSLETSASTAYLQINNLKNEDTATYFCARFGNYVDYWGQGTTLTVSSAKTTAPSVYPLAPVCGDTTGSSVTLGCLVKGYFPEPVTLTWNSGSLSSGVHTFPAVLQSDLYTLSSSVTVTSSTWPSQSITCNVAHPASSTKVDKKIEPRGPTIKPCPPCKCPAPNAAGGPSVFIFPPKIKDVLMISLSPMVTCVVVDVSEDDPDVQISWFVNNVEVLTAQTQTHREDYNSTLRVVSALPIQHQDWMSGKEFKCKVNNKALPAPIERTISKPKGSVRAPQVYVLPPPEEEMTKKQVTLTCMVTDFMPEDIYVEWTNNGKTELNYKNTEPVLDSDGSYLMYSKLTVEKKNWVERNSYSCSVVHEGLHNHHTTKSFSRTPG
light 1: DIVMTQAAFSNPVTLGTSASISCRSSKNLLHSNGITYLYWYLQKPGQSPHLLIYQMSNLASGVPDRFSSSGSGTDFTLRISRVEAEDVGVYYCAQNLEIPRTFGGGTKLEIKRADAAPTVSIFPPSSEQLTSGGASVVCFLNNFYPKDINVKWKIDGSERQNGVLNSWTDQDSKDSTYSMSSTLTLTKDEYERHNSYTCEATHKTSTSPIVKSFNRNEC
heavy 2: EMQLVESGGGLVQPGRSMKLSCAGSGFTLSDYGVAWVRQAPKKGLEWVAYISYAGGTTYYRESVKGRFTISRDNAKSTLYLQMDSLRSEDTATYYCTIDGYGGYSGSHWYFDFWGPGTMVTVSSAKTTAPSVYPLAPVCGDTTGSSVTLGCLVKGYFPEPVTLTWNSGSLSSGVHTFPAVLQSDLYTLSSSVTVTSSTWPSQSITCNVAHPASSTKVDKKIEPRGPTIKPCPPCKCPAPNAAGGPSVFIFPPKIKDVLMISLSPMVTCVVVDVSEDDPDVQISWFVNNVEVLTAQTQTHREDYNSTLRVVSALPIQHQDWMSGKEFKCKVNNKALPAPIERTISKPKGSVRAPQVYVLPPPEEEMTKKQVTLTCMVKDFMPEDIYVEWTNNGKTELNYKNTEPVLDSDGSYFMYSRLRVEKKNWVERNSYSCSVVHEGLHNHHTTKSFSRTPG
light 2: DIQMTQSPSLLSASVGDRVTLNCRTSQNVYKNLAWYQQKLGEAPKLLIYNANSLQAGIPSRFSGSGSGTDFTLTISSLQPEDVATYFCQQYYSGNTFGAGTNLELKRADAAPTVSIFPPSSEQLTSGGASVVCFLNNFYPKDINVKWKIDGSERQNGVLNSWTDQDSKDSTYSMSSTLTLTKDEYERHNSYTCEATHKTSTSPIVKSFNRNEC
notes: also called BsIgG2amm-EpCAM-323-A3-AALT/m4-1BB-3H3-AAKR; BisIgG2amm-EpCAM-323-A3-AALT/m4-1BB-3H3-AAKR
Response [6]: 0.02 nm

B4: IgG1-EpCAM-C52-FEAR (antibody, V domains shown)
VH: QVQLVQSGAEVKKPGASVKVSCKASGGTFSSYAISWVRQAPGQGLEWMGGIVPIFGTANYAQKFQGRVTITADESTSTAYMELSSLRSEDTAVYYCARDPFLHYWGQGTLVTVSS
VL: EIELTQSPGTLSLSPGERATLSCRASQSVSSSYLAWYQQKPGQAPRLLIYGASSRATGIPDRFSGSGSGTDFTLTISRLEPEDFAVYYCAQGELYPRQFGGGTKLDIKR
EC50 (read off the curve) [7]: ~0.3 µg/mL
EC50 (read off the curve) [8]: ~0.07 µg/mL

From US20260184809A1 (Genmab, published 2026)
